Data set [1] has as its target Myl12a, biotinylated (UniProt Q6ZWQ9). Nature of the data set: BLI. For orientation: BLI is a label-free optical method that tracks binding on a fibre tip over time.
The target in data set [2] is Myl12a, biotinylated (murine) (UniProt Q6ZWQ9). As to the kind of experiment: BLI.
Data set [3] deals with O=c1ccn([C@@H]2O[C@H](COP(=O)(O)OP(=O)(O)OP(=O)(O)O)[C@@H](O)[C@H]2O)c(=O)[nH]1. As to the kind of experiment: purified protein. The settings on record: phosphate donor, acceptor murine Myl12a, 10 mM MnCl2, 25 mM Tris-HCl pH 7.5, 1 mM DTT, 30 °C, 30 min.
Data set [4] has as its system Nc1nc2c(ncn2[C@@H]2O[C@H](COP(=O)(O)OP(=O)(O)OP(=O)(O)O)[C@@H](O)[C@H]2O)c(=O)[nH]1. As to the kind of experiment: purified protein. The conditions noted are these: phosphate donor, acceptor murine Myl12a, 10 mM MnCl2, 25 mM Tris-HCl pH 7.5, 1 mM DTT, 30 °C, 30 min.
Data set [5] concerns the target T1, SteC FL (full-length SteC) (Salmonella enterica, UniProt D0ZIB5).
T1 construct: full-length (457 aa), expressed in E. coli BL21(DE3) from pGL01, Ni-NTA, His-tag removed by PPase, Superdex 200; dimeric catalysis inferred from the kinase domain structure
As to the kind of experiment: Phos-tag gel kinase assay. It counts as biochemical. The settings on record: phosphate donor, 100 μM; acceptor murine Myl12a; 10 mM MgCl2/MnCl2, pH 7.5, 30 °C.

For data set [6], the target named is T2, Myl12a, biotinylated (murine, UniProt Q6ZWQ9 1-172, biotin (EZ-Link biotin, MCR = 1:1)).
T2 chain: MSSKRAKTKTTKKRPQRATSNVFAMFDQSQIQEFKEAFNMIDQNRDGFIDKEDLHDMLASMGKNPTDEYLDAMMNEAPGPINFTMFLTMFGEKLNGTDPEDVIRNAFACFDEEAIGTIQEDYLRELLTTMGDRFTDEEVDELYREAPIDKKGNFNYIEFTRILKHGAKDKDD
As to the kind of experiment: BLI.

This note sets out measurements from publication PMC11021425, “Salmonella manipulates macrophage migration via SteC-mediated myosin light chain activation to penetrate the gut-vascular barrier” (The EMBO Journal, 2024).

For orientation: Kd means the constant that tells how readily two partners part at equilibrium. For orientation: Km means the substrate concentration at which the rate is half of its maximum.

T1 sequence (D0ZIB5 whole entry, the tested form may be a part): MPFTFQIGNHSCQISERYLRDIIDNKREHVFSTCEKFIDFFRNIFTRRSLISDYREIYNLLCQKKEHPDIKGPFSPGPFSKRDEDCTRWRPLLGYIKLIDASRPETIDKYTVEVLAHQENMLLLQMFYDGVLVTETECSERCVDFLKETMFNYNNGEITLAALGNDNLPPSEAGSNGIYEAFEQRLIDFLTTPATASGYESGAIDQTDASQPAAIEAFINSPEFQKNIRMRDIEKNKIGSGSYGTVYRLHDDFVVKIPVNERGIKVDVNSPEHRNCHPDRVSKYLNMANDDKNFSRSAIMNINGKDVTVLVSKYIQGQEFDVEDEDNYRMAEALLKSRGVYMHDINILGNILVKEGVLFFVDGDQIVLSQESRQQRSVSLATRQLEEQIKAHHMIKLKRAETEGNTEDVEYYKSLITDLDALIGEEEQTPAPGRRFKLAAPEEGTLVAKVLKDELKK

For the molecule Native SteC mut4, in data set [1], the Kd was 1.11 µM.

Turning to “SteC-C (194 aa–457 aa) (domain or fragment)”, the Kd in data set [2] worked out at 23.3 µM.

With “SteC full-length protein (natural protein)”, in data set [2], the Kd stood at 1.34 µM.

As to “SteC FL (full-length SteC) (Salmonella enterica subsp. enterica serovar Typhimurium str. 14028S)”, the results for the Michaelis constant (Km) in data set [3] and in data set [4] were 5.53 µM and 5.84 µM, respectively.

Native SteC mut1 came in with a Kd in data set [1] of 1.09 µM.

For the molecule `Nc1ccn([C@@H]2O[C@H](COP(=O)(O)OP(=O)(O)OP(=O)(O)O)[C@@H](O)[C@H]2O)c(=O)n1` [CTP], the “Phos-tag gel kinase assay” value in data set [5] is “SteC can employ all four nucleotides (ATP, CTP, UTP, and GTP) for phosphorylation”.

B1: SteC 168 aa–364 aa fragment (domain or fragment)
chain: LPPSEAGSNGIYEAFEQRLIDFLTTPATASGYESGAIDQTDASQPAAIEAFINSPEFQKNIRMRDIEKNKIGSGSYGTVYRLHDDFVVKIPVNERGIKVDVNSPEHRNCHPDRVSKYLNMANDDKNFSRSAIMNINGKDVTVLVSKYIQGQEFDVEDEDNYRMAEALLKSRGVYMHDINILGNILVKEGVLFFVDGD
B1 showed a dissociation constant Kd in data set [6] of 0.71 µM.

B2: SteC 194 aa–364 aa (domain or fragment)
chain: ATASGYESGAIDQTDASQPAAIEAFINSPEFQKNIRMRDIEKNKIGSGSYGTVYRLHDDFVVKIPVNERGIKVDVNSPEHRNCHPDRVSKYLNMANDDKNFSRSAIMNINGKDVTVLVSKYIQGQEFDVEDEDNYRMAEALLKSRGVYMHDINILGNILVKEGVLFFVDGD
As to B2, the equilibrium dissociation constant (Kd) in data set [6] is 8.83 µM.
